Measurements reported in article PMC7041945, “Misfolded proteins bind and activate death receptor 5 to trigger apoptosis during unresolved endoplasmic reticulum stress” (eLife, 2020).

Columns and labels:
[1] = tested on: caspase 8 in HCT116 lysates; experiment: Caspase 8 activity (caspase glo 8) of cell lysates / IP inputs; assay type: cell-based, Homo sapiens; conditions: for average fold change rel to empty: mean of 4 dilutions
Experimental: Cells harvested from a 6-well plate were resuspended in 100 μl of lysis buffer (30 mM HEPES pH 7.2, 150 mM NaCl, 1% Triton X-100) and lysed via needle shearing (25G, 10 passes) followed by a 30 min incubation on ice. Supernatant was collected after centrifuging at 1000xg for 5 min. For the caspase activity assay, 10 μl of supernatant diluted with lysis buffer (1:25, 1:50, 1:100 to stay within linear range of luminescence measurements) was incubated with 10 μl of the luminogenic caspase glo 8 substrate (Promega #PRG8200) in a 384-white walled plate (Corning 3574) for 45 min at RT before measuring luminescence on a Spectramax-M5 plate reader.

[2] = tested on: CHOP, BiP, and DR5 mRNA in HCT116 cells; experiment: qPCR of UPR target transcripts (CHOP, BiP, DR5); assay type: cell-based, Homo sapiens; conditions: HCT116, transfected 24 hr
Experimental: Cells were grown in 6-well plates and harvested with 0.5 ml of TRIzol reagent (Life Technologies) per manufacturer’s protocol to extract RNA. For cDNA synthesis, 500 ng of total RNA was reverse transcribed with 2 μl of the SuperScript VILO master mix (Life Technologies # 11755050) in a total reaction volume of 10 μl following the manufacturer’s protocol for reaction temperature and duration. The reverse transcription product was diluted to 200 μl with 10 mM Tris-HCl pH 8.2 and used at 1:100 dilution for subsequent RT-PCR reactions.
PCR samples were prepared as described by manufacturer’s protocols from iQ SYBR Green Supermix (BioRad #17088800).
For each experiment, qRT-PCR reactions were set up in triplicate and run using a CFX96 Real Time System (Bio-Rad). Quantitation cycles were determined with CFX Manager 3.0 software (Bio-Rad) and then normalized to GAPDH as an internal control.

B1: MPZ-GFP: myelin protein zero with a C-terminal monomeric EGFP, expressed from plasmid (protein)
chain: IVVYTDREVHGAVGSRVTLHCSFWSSEWVSDDISFTWRYQPEGGRDAISIFHYAKGQPYIDEVGTFKERIQWVGDPRWKDGSIVIHNLDYSDNGTFTCDVKNPPDIVGKTSQVTLYVFEKVPTRYGVVLGAVIGGVLGVVLLLLLLFYVVRYCWLRRQAALQRRLSAMEKGKLHKPGKDASKRGRQTPVLYAMLDHSRSTKAVSEKKAKGLGESRKDKK
modifications: left off: monomeric EGFP, C-terminal, kept
notes: myelin protein zero with a C-terminal monomeric EGFP, expressed from plasmid
Q: For B1, which “average fold change rel to empty” value ([1]; 3 hr) is on record?
A: 0.9963 fold

Q: And the “average fold change rel to empty” value ([1]; 7 hr)?
A: 0.909 fold

Q: What about the “average fold change rel to empty” value ([1]; 10 hr) of the same molecule?
A: 1.233 fold

Q: What about the “average fold change rel to empty” value ([1]; 20 hr) of the same molecule?
A: 1.145 fold

Q: And the “average fold change rel to empty” value ([1]; 24 hr)?
A: 2.224 fold

Q: What about the average fold change ([1]; Rep 1, HCT116 lysate, amount not given, normalized RLUs relative to empty (GFP), average over four lysate dilutions) of the same molecule?
A: 2.827 fold

Q: And the “fold change relative to empty” value ([1]; input, dilution 0.01, rep1)?
A: 2.2

Q: And the “fold change relative to empty” value ([1]; input, dilution 0.01, rep2)?
A: 1.925

Q: And the “fold change relative to empty” value ([1]; input, dilution 0.01, rep3)?
A: 0.9528

Q: And the “fold change relative to empty” value ([1]; input, dilution 0.02, rep1)?
A: 2.798

Q: What about the “fold change relative to empty” value ([1]; input, dilution 0.02, rep2) of the same molecule?
A: 1.811

Q: What about the “fold change relative to empty” value ([1]; input, dilution 0.02, rep3) of the same molecule?
A: 1.706

Q: What about the avg fold change ([1]; input, dilution 0.02, second listing, relative to avg. empty, average of rep1-rep3) of the same molecule?
A: 1.9619

Q: And the “fold change relative to empty” value ([1]; input, dilution 0.02, second listing, rep2)?
A: 1.832

Q: What about the “fold change relative to empty” value ([1]; input, dilution 0.02, second listing, rep3) of the same molecule?
A: 1.342

Q: What about the “fold change in caspase 8 activity relative to empty, Mean ± SEM” value ([1]; inputs of GFP pulldown, n=6) of the same molecule?
A: 1.899 ± 0.2476, n=6 fold

Q: What about the “UPR target gene transcription” value [2] of the same molecule?
A: dose-dependent upregulation of the UPR transcriptional target genes CHOP, BiP, and DR5
